Tests used:
[1] = system: myofibers; assay: Annexin repair cap formation after laser injury at multiple Ca2+ concentrations; type: cell-based, mouse; settings: for repair cap diameter (DMAX) / cap size of the co-expressed wildtype annexin of the same type: wildtype+mutant vs wildtype+wildtype co-electroporation (homotypic); for Km1/2 (repair cap area as a function of Ca2+ concentration): Ca2+ 0-2 mM, modified Hill equation; for wildtype annexin A6 cap size with co-expressed mutant annexin A1 or A2: heterotypic co-expression
Description: (§1) Electroporation, myofiber isolation, laser injury, cap and vesicle measurement. Flexor digitorum brevis (FDB) fibers were transfected with endo-free plasmid DNA by in vivo electroporation. Methods were described previously in (Demonbreun and McNally, 2015; Demonbreun et al., 2016b; DiFranco et al., 2009). Z-stack projections were acquired from consecutive acquisitions after the final time-lapse frame, approximately 4 minutes post damage, with a […] step size between slices. Z-stack renderings were constructed in FIJI. Measurement of the cap area and feret diameter were conducted from a single slice near the middle of the z-stack using FIJI imaging tools. Fibers expressing similar levels of tagged or GCaMP5G protein were compared. GCaMP5G Ca^2+ fluorescence was measured from the acquired timelapse images, using a standard rectangular ROI, placed inside the myofiber below the site of damage using FIJI. Fluorescence was expressed as F/F0. External vesicle number and GCaMP5G area were measured from endpoint z-stacks and max projection images using FIJI. Vesicles were considered external if they were found outside the sarcolemma assessed in brightfield and fluorescent channels. All measurements were acquired from myofibers isolated from at least n≥3 mice, n≥3 myofibers per mouse.
Calcium kinetics. FDB muscle was electroporated and isolated as described above. Myofibers were damaged in Ringers solution with Ca^2+ concentrations of 2 mM, 1 mM, 0.5 mM, 0.25 mM, 0.175 mM, 0.1 mM, 0.050 mM, and 0 mM. EDTA was added as a Ca^2+ chelating agent in only in the 0 mM Ca^2+ Ringers. Myofibers were isolated directly into 2 mM, 1 mM and 0.5 mM Ringers for those experiments respectively. For experiments using less than 0.5 mM Ca^2+ myofibers were isolated in 0.5 mM Ca^2+ Ringers and then diluted with 0 mM EDTA-free Ca^2+ Ringers. For 0 mM experiments, myofibers were isolated in 0.5 mM Ca^2+ Ringers and then replaced with 0 mM Ca^2++EDTA Ringers just prior to imaging. Co-electroporation of wildtype annexin+wildtype annexin constructs was performed in one mouse foot, while the contralateral foot was co-electroporated with wildtype annexin+mutant annexin. All measurements were acquired from myofibers isolated from at least n≥2 mice, n≥3 myofibers per mouse at each Ca^2+ concentration. Area-Ca^2+ curves were fitted with a Hill Curve at Ca^2+ concentrations ranging from 0-2 mM. Kinetic parameters were calculated using Prism Graphpad.
as §1, with “(Demonbreun A R, Quattrocelli M, Barefield D Y, Allen M V, Swanson K E,” for “(Demonbreun”, “McNally E M. An actin-dependent annexin complex mediates plasma membrane repair in muscle. The Journal of cell biology. 2016; 213(6):705-18; Demonbreun A R, and McNally E M. DNA Electroporation, Isolation and Imaging of Myofibers. Journal of visualized experiments: JoVE.” for “McNally,”, “106(106):e53551;” for “Demonbreun et al., 2016b;”, “M, Quinonez M, Capote J, and Vergara J. DNA transfection of mammalian skeletal muscles using in vivo electroporation. Journal of visualized experiments: JoVE. 2009; 32(32)).” for “et al., 2009).”, “Vesicles were considered external if they were found outside the sarcolemma assessed in brightfield and fluorescent channels. All measurements were acquired from myofibers isolated from at least n≥3 mice, n≥3 myofibers per mouse.” left out

[2] = system: myofibers; assay: Bleb formation and intracellular Ca2+ fluorescence (GCaMP5G, Fluo-4) after laser injury with annexin overexpression; type: cell-based, mouse; settings: for internal GCaMP5G Ca2+ fluorescence at the site of injury: vs GCaMP5G alone
Description: as §1
as §1, with “(Demonbreun A R, Quattrocelli M, Barefield D Y, Allen M V, Swanson K E,” for “(Demonbreun”, “McNally E M. An actin-dependent annexin complex mediates plasma membrane repair in muscle. The Journal of cell biology. 2016; 213(6):705-18; Demonbreun A R, and McNally E M. DNA Electroporation, Isolation and Imaging of Myofibers. Journal of visualized experiments: JoVE.” for “McNally,”, “106(106):e53551;” for “Demonbreun et al., 2016b;”, “M, Quinonez M, Capote J, and Vergara J. DNA transfection of mammalian skeletal muscles using in vivo electroporation. Journal of visualized experiments: JoVE. 2009; 32(32)).” for “et al., 2009).”
Calcium and pH indicator dye measurements. Wildtype FDBs were isolated and plated in Ringers on Matek glass-bottom dishes as described above. Twenty minutes prior to imaging, myofibers were loaded with Fluo-4 AM at 37° C. (F10489, ThermoFisher Scientific, Waltham, Mass.) or pHrodo AM (P35373, ThermoFisher Scientific, Waltham, Mass.) as described in the instruction manual. Fibers were rinsed once with Ringers then subsequently damaged and imaged on the Nikon A1R GaSP, as described above. Fluorescence intensity was measured using FIJI (NIH). phRodo change in fluorescence intensity was calculated as F/F0. Data was acquired from n=3 mice per experiment from multiple myofibers per mouse. […]

[3] = fluorescently tagged annexin expressed in myofibers

Molecule | repair cap diameter (DMAX) / cap size of the co-expressed wildtype annexin of the same type [1] | internal GCaMP5G Ca2+ fluorescence at the site of injury ([2]; over 240 seconds of imaging) | Km1/2 (repair cap area as a function of Ca2+ concentration) [1, 3] [mM] | wildtype annexin A6 cap size with co-expressed mutant annexin A1 or A2 [1] | further results
A6D149A: annexin A6 D149A mutant, plasmid expressed (protein, UniProt P14824 2-673, looked up, variant D149A, GFP tag, annexin A6 D149A mutant, plasmid expressed) Annexin A6: AKIAQGAMYRGSVHDFPEFDANQDAEALYTAMKGFGSDKESILELITSRSNKQRQEICQNYKSLYGKDLIEDLKYELTGKFERLIVNLMRPLAYCDAKEIKDAISGVGTDEKCLIEILASRTNEQMHQLVAAYKDAYERDLESDIIGATSGHFQKMLVVLLQGTRENDDVVSEDLVQQDVQDLYEAGELKWGTDEAQFIYILGNRSKQHLRLVFDEYLKTTGKPIEASIRGELSGDFEKLMLAVVKCIRSTPEYFAERLFKAMKGLGTRDNTLIRIMVSRSELDMLDIREIFRTKYEKSLYSMIKNDTSGEYKKALLKLCGGDDDAAGQFFPEAAQVAYQMWELSAVSRVELKGTVCAANDFNPDADAKALRKAMKGIGTDEATIIDIVTHRSNAQRQQIRQTFKSHFGRDLMADLKSEISGDLARLILGLMMPPAHYDAKQLKKAMEGAGTDEKTLIEILATRTNAEIRAINEAYKEDYHKSLEDALSSDTSGHFRRILISLATGNREEGGENRDQAQEDAQVAAEILEIADTPSGDKTSLETRFMTVLCTRSYPHLRRVFQEFIKKTNYDIEHVIKKEMSGDVKDAFVAIVQSVKNKPLFFADKLYKSMKGAGTDEKTLTRVMVSRSEIDLLNIRREFIEKYDKSLHQAIEGDTSGDFMKALLALCGGED | little effect | – | – | – | –
annexin A1: annexin A1 with carboxyl-terminal turboGFP or tdTomato tag, expressed from plasmid in myofibers (protein, UniProt P10107 2-346, looked up, C-terminal turboGFP or tdTomato tag, annexin A1 with carboxyl-terminal turboGFP or tdTomato tag, expressed from plasmid in myofibers) Annexin A1: AMVSEFLKQARFLENQEQEYVQAVKSYKGGPGSAVSPYPSFNVSSDVAALHKAIMVKGVDEATIIDILTKRTNAQRQQIKAAYLQENGKPLDEVLRKALTGHLEEVVLAMLKTPAQFDADELRGAMKGLGTDEDTLIEILTTRSNEQIREINRVYREELKRDLAKDITSDTSGDFRKALLALAKGDRCQDLSVNQDLADTDARALYEAGERRKGTDVNVFTTILTSRSFPHLRRVFQNYGKYSQHDMNKALDLELKGDIEKCLTTIVKCATSTPAFFAEKLYEAMKGAGTRHKALIRIMVSRSEIDMNEIKVFYQKKYGISLCQAILDETKGDYEKILVALCGGN | – | significant reduction | 0.17 | – | –
annexin A1 D171A: Ca2+-binding mutant of annexin A1 (D171A), plasmid expressed (protein, UniProt P10107 2-346, looked up, variant D171A, GFP tag) Annexin A1: AMVSEFLKQARFLENQEQEYVQAVKSYKGGPGSAVSPYPSFNVSSDVAALHKAIMVKGVDEATIIDILTKRTNAQRQQIKAAYLQENGKPLDEVLRKALTGHLEEVVLAMLKTPAQFDADELRGAMKGLGTDEDTLIEILTTRSNEQIREINRVYREELKRDLAKDITSATSGDFRKALLALAKGDRCQDLSVNQDLADTDARALYEAGERRKGTDVNVFTTILTSRSFPHLRRVFQNYGKYSQHDMNKALDLELKGDIEKCLTTIVKCATSTPAFFAEKLYEAMKGAGTRHKALIRIMVSRSEIDMNEIKVFYQKKYGISLCQAILDETKGDYEKILVALCGGN | significantly reduced | – | – | minimal effect | –
annexin A2: annexin A2 with carboxyl-terminal turboGFP or tdTomato tag, expressed from plasmid in myofibers (protein, UniProt P07356 2-339, looked up, C-terminal turboGFP or tdTomato tag, annexin A2 with carboxyl-terminal turboGFP or tdTomato tag, expressed from plasmid in myofibers) Annexin A2: STVHEILCKLSLEGDHSTPPSAYGSVKPYTNFDAERDALNIETAVKTKGVDEVTIVNILTNRSNVQRQDIAFAYQRRTKKELPSALKSALSGHLETVILGLLKTPAQYDASELKASMKGLGTDEDSLIEIICSRTNQELQEINRVYKEMYKTDLEKDIISDTSGDFRKLMVALAKGRRAEDGSVIDYELIDQDARELYDAGVKRKGTDVPKWISIMTERSVCHLQKVFERYKSYSPYDMLESIKKEVKGDLENAFLNLVQCIQNKPLYFADRLYDSMKGKGTRDKVLIRIMVSRSEVDMLKIRSEFKRKYGKSLYYYIQQDTKGDYQKALLYLCGGDD | – | significant reduction | 0.067 | – | number of extracellular (GCaMP5G-positive) blebs at the membrane lesion ([2]; annexin overexpression vs annexin A1 overexpression or GCaMP5G alone): significantly more blebs; internal GCaMP5G Ca2+ fluorescence at the site of injury ([2]; first 20 seconds post injury): significant reduction; lowest Ca2+ concentration at which a discernable repair cap formed [1, 3]: 0.05 mM
A2D161A: Ca2+-binding mutant of annexin A2 (D161A), plasmid expressed (protein, UniProt P07356 2-339, looked up, variant D161A, GFP tag) Annexin A2: STVHEILCKLSLEGDHSTPPSAYGSVKPYTNFDAERDALNIETAVKTKGVDEVTIVNILTNRSNVQRQDIAFAYQRRTKKELPSALKSALSGHLETVILGLLKTPAQYDASELKASMKGLGTDEDSLIEIICSRTNQELQEINRVYKEMYKTDLEKDIISATSGDFRKLMVALAKGRRAEDGSVIDYELIDQDARELYDAGVKRKGTDVPKWISIMTERSVCHLQKVFERYKSYSPYDMLESIKKEVKGDLENAFLNLVQCIQNKPLYFADRLYDSMKGKGTRDKVLIRIMVSRSEVDMLKIRSEFKRKYGKSLYYYIQQDTKGDYQKALLYLCGGDD | significantly reduced | – | – | minimal effect | –

From patent US20220143136A1, “USE OF ANNEXINS IN PREVENTING AND TREATING MUSCLE MEMBRANE INJURY” (NORTHWESTERN UNIVERSITY, priority 2018, published 2022)
